The values that follow come from paper PMC6028238.

For test [1], the target named is protein H on the surface of S. pyogenes AP1 bacteria (Streptococcus pyogenes (endogenous in strain AP1)). The test can be described thus: electron microscopy with gold-labelled protein.
Test [2] has as its target human C4b-binding protein (C4BP), purified from plasma (human) (UniProt P04003). The test can be described thus: negative-stain electron microscopy.
Test [3] addresses protein H on the surface of S. pyogenes AP1 bacteria (Streptococcus pyogenes (endogenous in strain AP1)). The test can be described thus: flow cytometry on cells. (In general: A flow cytometer gives signals particle by particle.)

In test [1], “human C4b-binding protein (C4BP), purified from plasma (from UniProt P04003 49-597; P20851 18-252) (complex)” displayed a gold particles of C4BP bound to the surface, with IgG (gold particles/mm^2) of 917 and a gold particles of C4BP bound to the surface, without IgG (gold particles/mm^2) of 82.
In test [2], “protein H (Streptococcus pyogenes), recombinant (natural protein)” showed a percent of C4BP molecules complexed with protein H, with IgG of 83% and a percent of C4BP molecules complexed with protein H, without IgG of 7%.

B1: human C4BP in serum of human C4BP transgenic mice (natural protein)
chain: NCGPPPTLSFAAPMDITLTETRFKTGTTLKYTCLPGYVRSHSTQTLTCNSDGEWVYNTFCIYKRCRHPGELRNGQVEIKTDLSFGSQIEFSCSEGFFLIGSTTSRCEVQDRGVGWSHPLPQCEIVKCKPPPDIRNGRHSGEENFYAYGFSVTYSCDPRFSLLGHASISCTVENETIGVWRPSPPTCEKITCRKPDVSHGEMVSGFGPIYNYKDTIVFKCQKGFVLRGSSVIHCDADSKWNPSPPACEPNSCINLPDIPHASWETYPRPTKEDVYVVGTVLRYRCHPGYKPTTDEPTTVICQKNLRWTPYQGCEALCCPEPKLNNGEITQHRKSRPANHCVYFYGDEISFSCHETSRFSAICQGDGTWSPRTPSCGDICNFPPKIAHGHYKQSSSYSFFKEEIIYECDKGYILVGQAKLSCSYSHWSAPAPQCKALCRKPELVNGRLSVDKDQYVEPENVTIQCDSGYGVVGPQSITCSGNRTWYPEVPKCEWETPEGCEQVLTGKRLMQCLPNPEDVKMALEVYKLSLEIEQLELQRDSARQSTLDKEL
In the case of B1, in test [3], the C4BP binding without IgG at 30 °C, as percent of the binding with IVIG was determined as 40%; the C4BP binding without IgG at 39 °C, as percent of the binding with IVIG was less than 10%; the fold increase of binding with 1 mg/ml IVIG against no IVIG was 2 fold.
